Experimental findings from PMC4388636 are described below.

In assay [1] the target is toll like receptor-4 (human (endogenous in monocytes)) (UniProt O00206).
The target is the same in assay [2]. This is another data set of the same source.
Assay [3] has the same target. The source holds these as a separate data set.
Assay [4] has the same target. This is another data set of the same source.

Sequence of UniProt O00206 (O00206 24-839): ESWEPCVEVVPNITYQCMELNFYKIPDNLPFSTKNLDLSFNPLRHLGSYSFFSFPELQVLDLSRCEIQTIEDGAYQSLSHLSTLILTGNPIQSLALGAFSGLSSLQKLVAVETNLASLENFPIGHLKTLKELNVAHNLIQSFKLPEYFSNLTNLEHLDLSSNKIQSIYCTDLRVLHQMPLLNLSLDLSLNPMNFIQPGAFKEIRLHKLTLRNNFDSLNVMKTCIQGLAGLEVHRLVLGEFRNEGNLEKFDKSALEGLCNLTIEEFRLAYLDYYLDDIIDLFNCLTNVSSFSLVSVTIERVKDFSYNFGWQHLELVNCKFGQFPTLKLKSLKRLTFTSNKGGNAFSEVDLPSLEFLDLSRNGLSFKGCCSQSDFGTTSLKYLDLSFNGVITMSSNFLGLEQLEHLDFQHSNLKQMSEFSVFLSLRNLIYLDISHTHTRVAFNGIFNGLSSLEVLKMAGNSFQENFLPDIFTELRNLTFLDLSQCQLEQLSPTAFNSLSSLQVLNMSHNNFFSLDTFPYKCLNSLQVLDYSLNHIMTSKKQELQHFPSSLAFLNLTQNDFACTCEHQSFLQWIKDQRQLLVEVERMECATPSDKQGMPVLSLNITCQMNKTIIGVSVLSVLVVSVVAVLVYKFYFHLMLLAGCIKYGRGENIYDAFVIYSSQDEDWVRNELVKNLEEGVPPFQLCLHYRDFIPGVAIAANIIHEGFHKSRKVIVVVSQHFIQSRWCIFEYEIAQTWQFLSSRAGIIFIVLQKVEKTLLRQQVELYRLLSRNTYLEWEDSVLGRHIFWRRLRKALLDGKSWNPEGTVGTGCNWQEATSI

B1: recombinant Wolbachia heat shock protein 60 (natural protein)
chain: MTNVVVSGEQLQEAFREVAVMVDSTVAITAGPRGKTVGINKPYGAPEITKDGYKVMKGIKPEKPLHAAITSIFAQSCFQCNDKVGDGTTTCSILTSNMIMEALKSIAAGNDRVSIKNGMQKAKDAVLEGITSMSRTIPLEKMDEVAQVAIISANGDKDIGNSIADAVKKVGKEGVITVEESKGSKELEVELTTGMQFDRGYLSPYFITSNEKMIVEFDDPYLLITEKKLSIIQPLLPILEAVVKSGKPLLIIAEDIEGEALSTLVINKLRGGLKVTAVKAPGFGDRRKEMLEDIAALTGAKYVIKDELGIKMEDLTLEDLGTAKNVKVTKDNTTIVSGSSDSDRVKARVEQIKSQIETSTSDYDKEKLRERLAKLSGGVAVLKVGGVTEVEVKERRDRVEDALHATRAAIEEGIVPGGGVALLYASSALDKLKGGSDEEQIGINIIKKVLSAPIKRLVKNAGLESAVIIDHLTKQNDKELIYNVEAMNYANAFTAGVIDPAKVVRIAFETAISVASVLITTESMIVDVPNKEENASSSMGAGGMGGMNGF
In assay [1], B1 yielded a dead monocytes after rWmhsp60, with rapamycin treatment before the stimulation of 7.5% and a late apoptotic monocytes after rWmhsp60, with rapamycin treatment before the stimulation of 6.5%. Besides, in assay [2], the ROS levels in monocytes after rWmhsp60, fluorimetry with DCF2-DA, fold change was determined as 3 fold and the loss of mitochondrial membrane potential in monocytes after rWmhsp60, fluorimetry with TMRE, fold change amounted to 3 fold. Further, in assay [3], the SA-β-Gal–positive (senescent) monocytes after rWmhsp60 amounted to 78% and the SA-β-Gal–positive (senescent) monocytes after rWmhsp60, with rapamycin pretreatment worked out at 10%. Further, in assay [4], the dead monocytes (annexin-V-FITC-/PI+) after 24 h with rWmhsp60 amounted to 23%; the dead monocytes after rWmhsp60, with pretreatment by anti-TLR-4 monoclonal antibodies for 2 h came out at 6.5%; the late apoptotic monocytes (annexin-V-FITC+/PI+) after 24 h with rWmhsp60 was 18%; the late apoptotic monocytes after rWmhsp60, with pretreatment by anti-TLR-4 monoclonal antibodies for 2 h came to 6%.
